Data: PMC3726423, “Comparative Study of Two Box H/ACA Ribonucleoprotein Pseudouridine-Synthases: Relation between Conformational Dynamics of the Guide RNA, Enzyme Assembly and Activity” (PLoS ONE, 2013)
Where a chain is given by its changes, count along the chain named. Names and notes keep the numbering of the source. Blank lines part the entries; values can stand above or below the binder they belong to.

Biological target: T1, aCBF5 (P. abyssi, UniProt Q9V1A5 1-334)
T1 construct: aCBF5, archaeal H/ACA sRNP pseudouridine synthase, P. abyssi; also called pseudouridine synthase aCBF5; source: purified recombinant proteins
T1 sequence (looked up): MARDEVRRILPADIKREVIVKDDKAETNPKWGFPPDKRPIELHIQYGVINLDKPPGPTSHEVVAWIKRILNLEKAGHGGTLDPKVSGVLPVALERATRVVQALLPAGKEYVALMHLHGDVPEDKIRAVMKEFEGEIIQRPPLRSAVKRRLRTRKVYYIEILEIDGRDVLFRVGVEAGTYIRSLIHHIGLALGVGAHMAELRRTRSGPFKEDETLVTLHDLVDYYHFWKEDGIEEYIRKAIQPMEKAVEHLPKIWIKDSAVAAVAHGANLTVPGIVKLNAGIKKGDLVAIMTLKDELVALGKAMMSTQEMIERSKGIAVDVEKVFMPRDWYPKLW
Experiment: native gel or EMSA; 32P 5' end-labelled sRNA Pab21 or Pab91 (~50 fmol) incubated with the proteins (200 nM each) in buffer D (150 mM KCl, 1.5 mM MgCl2, 0.2 mM EDTA, 20 mM HEPES pH 7.9) at 65°C for 10 min; non-denaturing polyacrylamide gel; the proteins are seen only through the shift of the labelled sRNA
Settings: both partners purified

binding result: binds
B1: aNOP10 (natural protein, P. abyssi, UniProt Q9V0E3 1-60, looked up)
chain: MRFRIRKCPKCGRYTLKETCPVCGEKTKVAHPPRFSPEDPYGEYRRRLKRELLGIGRKEK
notes: aNOP10, archaeal H/ACA sRNP core protein, P. abyssi; source: purified recombinant proteins

binding result: binds
B2: aNOP10 Y41A/Y44A (natural protein, P. abyssi, UniProt Q9V0E3 1-60, looked up)
chain: B1 chain with Y41A, Y44A
notes: aNOP10, P. abyssi, with two alanine substitutions in helix alpha1; also called aNOP10 mutant Y41A/Y44A; source: purified recombinant proteins
